Measured values as given in patent US20110015138A1 (GENUS ONCOLOGY, published 2011).
Each block holds one binder with its values, some of them ahead of it. Ends that are not written are not given here.

How the values were obtained:
[1] = target: T1, GST-STAT3 (C-terminal; amino acids 514-770) (UniProt P40763 514-770); assay: GST-STAT3 deletion mutants on glutathione beads incubated with purified MUC1-CD, immunoblot anti-MUC1-C
T1 construct: range 514-770; The legend names it GST-MUC1-CD, but the text and the end of the legend speak of STAT3 deletion mutants / GST-STAT3 fusion proteins; also called printed in the legend as GST-MUC1-CD (C-terminal); not shown: glutathione S-transferase (GST) fusion moiety
T1 sequence (P40763 514-770): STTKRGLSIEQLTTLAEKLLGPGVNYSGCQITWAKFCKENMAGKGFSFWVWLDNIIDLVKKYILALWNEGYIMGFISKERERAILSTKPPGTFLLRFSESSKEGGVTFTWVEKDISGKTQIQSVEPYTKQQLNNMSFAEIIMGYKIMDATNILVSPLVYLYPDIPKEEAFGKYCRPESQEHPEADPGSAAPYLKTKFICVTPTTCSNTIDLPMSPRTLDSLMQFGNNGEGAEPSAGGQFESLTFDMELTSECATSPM
Method: (§1) FIGS. 9A-D: MUC1-C binds directly to the STAT3 DBD. (FIG. 9A) Lysates from ZR-75-1 (left) and MCF-7 (right) cells were subjected to immunoprecipitation with anti-STAT3 or a control IgG. The precipitates were immunoblotted with the indicated antibodies. (FIG. 9B) Lysates from ZR-75-1 cells were incubated with GST and GST-MUC1-CD bound to glutathione beads. The adsorbates were immunoblotted with anti-STAT3 Input of the GST and GST-MUC1-CD proteins was assessed by Coomassie blue staining. (FIG. 9C) Amino acid sequence of the MUC1 cytoplasmic domain is shown with the indicated phosphorylation and binding sites. GST, GST-MUC1-CD, GST-MUC1-CD (1-45) and GST-MUC1-CD (46-72) bound to glutathione beads were incubated with purified recombinant STAT3. The adsorbates were immunoblotted with anti-STAT3. Input of the GST and GST-MUC1-CD fusion proteins was assessed by Coomassie blue staining. (FIG. 9D) Structure of STAT3. GST, GST-STAT3 (full length; amino acids 1-770), […], […] and […] bound to glutathione beads were incubated with purified MUC1-CD. Adsorbates were immunoblotted with anti-MUC1-C. Input of the GST and GST-STAT3 fusion proteins was assessed by Coomassie blue staining.
(§2) MUC1-C directly interacts with STAT3. […]

[2] = target: T2, GST-STAT3 (N-terminal; amino acids 1-257) (UniProt P40763 1-257); assay: as above
T2 construct: range 1-257; The legend names it GST-MUC1-CD, but the text and the end of the legend speak of STAT3 deletion mutants / GST-STAT3 fusion proteins; also called dimerization domain; printed in the legend as GST-MUC1-CD (N-terminal: amino acids 1-257); not shown: glutathione S-transferase (GST) fusion moiety
T2 sequence (P40763 1-257): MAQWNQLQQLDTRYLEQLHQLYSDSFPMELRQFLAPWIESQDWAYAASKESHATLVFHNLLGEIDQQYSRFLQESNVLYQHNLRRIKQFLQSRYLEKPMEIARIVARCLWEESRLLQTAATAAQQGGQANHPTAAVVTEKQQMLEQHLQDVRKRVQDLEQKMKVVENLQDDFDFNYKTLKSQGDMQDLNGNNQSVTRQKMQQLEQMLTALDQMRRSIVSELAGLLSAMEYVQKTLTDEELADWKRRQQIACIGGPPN
Method: as §1, §2

[3] = target: T3, purified recombinant NF-κB p65 (UniProt Q04206 1-551, limits assumed); assay: GST pull-down of purified recombinant p65, immunoblot anti-p65
T3 construct: also called purified NF-κB p65

[4] = target: purified recombinant STAT3 (UniProt P40763 1-770, limits assumed); assay: GST pull-down of purified recombinant STAT3, immunoblot anti-STAT3
Sequence of purified recombinant STAT3 (P40763 whole entry): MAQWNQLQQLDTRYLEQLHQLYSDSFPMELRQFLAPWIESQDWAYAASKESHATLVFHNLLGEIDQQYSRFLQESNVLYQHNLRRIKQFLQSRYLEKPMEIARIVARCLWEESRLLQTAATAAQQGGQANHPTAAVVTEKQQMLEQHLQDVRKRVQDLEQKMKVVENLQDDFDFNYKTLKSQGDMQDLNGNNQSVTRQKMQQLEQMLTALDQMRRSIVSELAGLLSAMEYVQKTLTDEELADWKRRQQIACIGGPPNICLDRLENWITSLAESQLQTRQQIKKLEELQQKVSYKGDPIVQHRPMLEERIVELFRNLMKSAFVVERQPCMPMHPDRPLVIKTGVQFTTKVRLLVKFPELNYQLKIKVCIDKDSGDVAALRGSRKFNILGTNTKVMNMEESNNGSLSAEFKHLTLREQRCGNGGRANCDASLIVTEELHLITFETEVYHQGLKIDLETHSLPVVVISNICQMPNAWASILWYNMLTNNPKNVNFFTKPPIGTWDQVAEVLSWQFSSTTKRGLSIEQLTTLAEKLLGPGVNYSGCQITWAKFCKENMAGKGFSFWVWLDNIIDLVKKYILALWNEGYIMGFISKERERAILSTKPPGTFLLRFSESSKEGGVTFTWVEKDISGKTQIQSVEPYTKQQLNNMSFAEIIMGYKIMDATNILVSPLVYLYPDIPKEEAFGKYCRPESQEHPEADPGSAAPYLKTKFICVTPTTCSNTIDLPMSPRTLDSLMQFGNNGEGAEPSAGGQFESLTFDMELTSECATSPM
Method: as §1, §2

[5] = target: T4, GST-IκBα (UniProt P25963 1-317); assay: GST pull-down of purified p65(1-180), immunoblot anti-p65
T4 construct: Bought (Millipore, Billerica, Mass.); not shown: glutathione S-transferase (GST) fusion moiety
T4 sequence (looked up): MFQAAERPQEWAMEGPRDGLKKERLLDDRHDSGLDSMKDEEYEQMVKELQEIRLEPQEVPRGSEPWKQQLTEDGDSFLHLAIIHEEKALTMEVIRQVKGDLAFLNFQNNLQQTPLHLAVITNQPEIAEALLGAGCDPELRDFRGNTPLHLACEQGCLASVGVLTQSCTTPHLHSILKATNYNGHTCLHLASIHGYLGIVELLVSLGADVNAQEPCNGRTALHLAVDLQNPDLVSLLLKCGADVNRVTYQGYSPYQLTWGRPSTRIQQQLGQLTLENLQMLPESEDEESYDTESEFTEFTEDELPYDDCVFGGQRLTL

[6] = target: T5, NF-κB p65 (in cells / cell lysates) (human, UniProt Q04206 1-551); assay: co-immunoprecipitation with anti-p65 from ZR-75-1, MCF-7 and U-937/MUC1-C cell lysates, immunoblot anti-MUC1-C
T5 construct: Endogenous protein of the cell lines
Method: Immunoprecipitation and immunoblotting. Lysates from sub-confluent cells were prepared as described (Ren et al., 2004). Soluble proteins were precipitated with anti-NF-κB p65 (Santa Cruz Biotechnology, Santa Cruz, Calif.). […] Immune complexes were detected with horseradish peroxidase-conjugated secondary antibodies (GE Healthcare Biosciences, Piscataway, N.J.) and enhanced chemiluminescence (GE Healthcare).
MUC1-C associates with NF-κB p65. To determine whether MUC1 interacts with NF-κB, anti-NF-κB p65 precipitates from ZR-75-1 breast cancer cells were immunoblotted with an antibody against the MUC1-C subunit cytoplasmic domain. […] Similar findings were obtained with lysates from MCF-7 breast cancer cells, which also overexpress endogenous MUC1 (FIG. 1B). To determine whether the MUC1-N subunit is necessary for the association, studies were performed on U-937 cells that stably express exogenous MUC1-C and not MUC1-N (Agata et al., 2008).

[7] = target: T6, STAT3 (in cells / cell lysates) (human, UniProt P40763 2-770); assay: co-immunoprecipitation with anti-STAT3 from ZR-75-1 and MCF-7 cell lysates, immunoblot anti-MUC1-C
T6 construct: Endogenous protein of the cell lines
T6 sequence (P40763 2-770 limits assumed): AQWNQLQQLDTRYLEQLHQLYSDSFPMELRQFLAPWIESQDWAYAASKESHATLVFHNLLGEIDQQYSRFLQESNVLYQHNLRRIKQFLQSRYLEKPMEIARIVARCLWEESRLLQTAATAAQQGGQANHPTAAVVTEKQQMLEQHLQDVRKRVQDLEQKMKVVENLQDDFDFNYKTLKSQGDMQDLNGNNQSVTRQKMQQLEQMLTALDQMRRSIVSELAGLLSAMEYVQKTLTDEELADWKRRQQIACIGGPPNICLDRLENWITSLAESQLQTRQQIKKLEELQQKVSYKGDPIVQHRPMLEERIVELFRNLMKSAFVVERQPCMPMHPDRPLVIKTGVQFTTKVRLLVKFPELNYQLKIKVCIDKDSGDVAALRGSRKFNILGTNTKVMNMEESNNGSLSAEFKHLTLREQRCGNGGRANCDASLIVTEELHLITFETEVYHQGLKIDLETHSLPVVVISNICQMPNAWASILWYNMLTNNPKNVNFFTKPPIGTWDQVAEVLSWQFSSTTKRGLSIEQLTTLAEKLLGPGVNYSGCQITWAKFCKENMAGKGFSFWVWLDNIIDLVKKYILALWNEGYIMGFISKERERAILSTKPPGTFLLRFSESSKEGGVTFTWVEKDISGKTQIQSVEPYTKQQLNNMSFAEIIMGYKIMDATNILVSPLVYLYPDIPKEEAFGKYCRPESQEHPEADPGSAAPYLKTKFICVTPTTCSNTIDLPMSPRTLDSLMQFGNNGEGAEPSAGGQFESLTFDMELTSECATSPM
Method: as §1, §2

B1: MUC1-CD (purified, GST moiety removed with thrombin) (other)
chain: CQCRRKNYGQLDIFPARDTYHPMSEYPTYHTHGRYVPPSSTDRSPYEKVSAGNGGSSLSYTNPAVAATSANL
notes: also called purified MUC1-CD; MUC1-C cytoplasmic domain
binding result [1]: no binding
binding result [2]: no binding

B4: MUC1 C-terminal subunit (MUC1-C), in cells (receptor)
chain: SVVVQLTLAFREGTINVHDVETQFNQYKTEAASRYNLTISDVSVSDVPFPFSAQSGAGVPGWGIALLVLVCVLVALAIVYLIALAVCQCRRKNYGQLDIFPARDTYHPMSEYPTYHTHGRYVPPSSTDRSPYEKVSAGNGGSSLSYTNPAVAATSANL
notes: Endogenous MUC1-C in lysates of ZR-75-1, MCF-7 and MCF-10A cells, or exogenous MUC1-C in U-937 cells and exogenous MUC1 in HeLa cells
binding result [6]: binds
binding result [7]: binds

The next lines start with the values.

binding result [3]: no binding
binding result [4]: no binding
B2: GST-MUC1-CD(1-45) (other)
chain: CQCRRKNYGQLDIFPARDTYHPMSEYPTYHTHGRYVPPSSTDRSP
modifications: cysteine pairing not given here; also: GST fusion
notes: Deletion mutant of GST-MUC1-CD; residues counted on the 72 amino acid cytoplasmic domain; not shown: glutathione S-transferase (GST) fusion moiety

binding result [5]: no binding
B3: p65(1-180) (other, UniProt Q04206 1-180, looked up)
chain: MDELFPLIFPAEPAQASGPYVEIIEQPKQRGMRFRYKCEGRSAGSIPGERSTDTTKTHPTIKINGYTGPGTVRISLVTKDPPHRPHPHELVGKDCRDGFYEAELCPDRCIHSFQNLGIQCVKKRDLEQAISQRIQTNNNPFQVPIEEQRGDYDLNAVRLCFQVTVRDPSGRPLRLPPVLS
notes: range 1-180; Purified deletion mutant; also called purified p65(1-180)
